Assay results: the supplement of paper PMC10567573

B1: ELF3 (parent)
chain: LSKEYWDCLEGKKSKHAPRGTHLW

Variants of: B1
Test: protein stability index of a GFP-peptide fusion (GPS, HEK-293T) (PSI 1-6); higher = more stable
Settings: c terminus: a fixed tail appended
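Also: lentivirally expressed fusions sorted by FACS into six bins by GFP to DsRed ratio, PSI derived from sequencing read proportions per bin multiplied by bin number.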

| Variant | protein stability index |
| --- | --- |
| LSKEYWDCTEGKKSKHAPRGTHLW | 2.93 |
| LSKEYWDCNEGKKSKHAPRGTHLW | 3.81 |
| LSKEYWDCPEGKKSKHAPRGTHLW | 3.44 |
| LSKEYWDCKEGKKSKHAPRGTHLW | 2.92 |
| LSKEYWDCAEGKKSKHAPRGTHLW | 3.38 |
| LSKEYWDCYEGKKSKHAPRGTHLW | 2.84 |
| LSKEYWDCHEGKKSKHAPRGTHLW | 3.26 |
| LSKEYWDCFEGKKSKHAPRGTHLW | 2.6 |
| LSKEYWDCIEGKKSKHAPRGTHLW | 3.04 |
| LSKEYWDCCEGKKSKHAPRGTHLW | 3.3 |
| LSKEYWDCEEGKKSKHAPRGTHLW | 3.46 |
| LSKEYWDCREGKKSKHAPRGTHLW | 2.89 |
| LSKEYWDCSEGKKSKHAPRGTHLW | 3.31 |
| LSKEYWDCVEGKKSKHAPRGTHLW | 3.83 |
| LSKEYWDCWEGKKSKHAPRGTHLW | 2.27 |
| LSKEYWDCDEGKKSKHAPRGTHLW | 3.22 |
| LSKEYWDCGEGKKSKHAPRGTHLW | 3.65 |
| LSKEYWDCMEGKKSKHAPRGTHLW | 3.42 |
| LSKEYWDCQEGKKSKHAPRGTHLW | 3.71 |
| LSKEYWDCLEGKKSWHAPRGTHLW | 2.93 |
| LSKEYWDCLEGKKSAHAPRGTHLW | 2.86 |
| LSKEYWDCLEGKKSIHAPRGTHLW | 2.61 |
| LSKEYWDCLEGKKSTHAPRGTHLW | 3.26 |
| LSKEYWDCLEGKKSYHAPRGTHLW | 1.83 |

| Variant | protein stability index |
| --- | --- |
| LSKEYWDCLEGKKSNHAPRGTHLW | 2.79 |
| LSKEYWDCLEGKKSSHAPRGTHLW | 3.04 |
| LSKEYWDCLEGKKSEHAPRGTHLW | 2.77 |
| LSKEYWDCLEGKKSRHAPRGTHLW | 3.44 |
| LSKEYWDCLEGKKSMHAPRGTHLW | 3.18 |
| LSKEYWDCLEGKKSQHAPRGTHLW | 2.87 |
| LSKEYWDCLEGKKSLHAPRGTHLW | 2.16 |
| LSKEYWDCLEGKKSPHAPRGTHLW | 2.53 |
| LSKEYWDCLEGKKSHHAPRGTHLW | 2.52 |
| LSKEYWDCLEGKKSFHAPRGTHLW | 2.74 |
| LSKEYWDCLEGKKSGHAPRGTHLW | 2.56 |
| LSKEYWDCLEGKKSCHAPRGTHLW | 2.29 |
| LSKEYWDCLEGKKSVHAPRGTHLW | 2.64 |
| LSKEYWDCLEGKKSDHAPRGTHLW | 3 |
| LSKEYWDCLEGKKSKLAPRGTHLW | 2.68 |
| LSKEYWDCLEGKKSKKAPRGTHLW | 3.05 |
| LSKEYWDCLEGKKSKYAPRGTHLW | 3.54 |
| LSKEYWDCLEGKKSKVAPRGTHLW | 2.94 |
| LSKEYWDCLEGKKSKNAPRGTHLW | 3.2 |
| LSKEYWDCLEGKKSKTAPRGTHLW | 3.43 |
| LSKEYWDCLEGKKSKAAPRGTHLW | 2.72 |
| LSKEYWDCLEGKKSKMAPRGTHLW | 2.3 |
| LSKEYWDCLEGKKSKPAPRGTHLW | 2.65 |
| LSKEYWDCLEGKKSKSAPRGTHLW | 2.52 |

| Variant | protein stability index |
| --- | --- |
| LSKEYWDCLEGKKSKGAPRGTHLW | 2.88 |
| LSKEYWDCLEGKKSKRAPRGTHLW | 2.4 |
| LSKEYWDCLEGKKSKIAPRGTHLW | 2.87 |
| LSKEYWDCLEGKKSKCAPRGTHLW | 2.64 |
| LSKEYWDCLEGKKSKDAPRGTHLW | 3.25 |
| LSKEYWDCLEGKKSKQAPRGTHLW | 2.86 |
| LSKEYWDCLEGKKSKWAPRGTHLW | 2.24 |
| LSKEYWDCLEGKKSKEAPRGTHLW | 3.14 |
| LSKEYWDCLEGKKSKFAPRGTHLW | 2.64 |
| LSKEYWDCLEDKKSKHAPRGTHLW | 3.19 |
| LSKEYWDCLECKKSKHAPRGTHLW | 2.27 |
| LSKEYWDCLETKKSKHAPRGTHLW | 2.98 |
| LSKEYWDCLESKKSKHAPRGTHLW | 3.5 |
| LSKEYWDCLEMKKSKHAPRGTHLW | 1.94 |
| LSKEYWDCLEHKKSKHAPRGTHLW | 2.17 |
| LSKEYWDCLEVKKSKHAPRGTHLW | 2.2 |
| LSKEYWDCLEQKKSKHAPRGTHLW | 2.69 |
| LSKEYWDCLEAKKSKHAPRGTHLW | 2.91 |
| LSKEYWDCLEPKKSKHAPRGTHLW | 2.89 |
| LSKEYWDCLERKKSKHAPRGTHLW | 3.26 |
| LSKEYWDCLEYKKSKHAPRGTHLW | 2.58 |
| LSKEYWDCLEKKKSKHAPRGTHLW | 2.97 |
| LSKEYWDCLEIKKSKHAPRGTHLW | 2.29 |
| LSKEYWDCLEEKKSKHAPRGTHLW | 3.29 |

| Variant | protein stability index |
| --- | --- |
| LSKEYWDCLELKKSKHAPRGTHLW | 2.71 |
| LSKEYWDCLEFKKSKHAPRGTHLW | 2.43 |
| LSKEYWDCLENKKSKHAPRGTHLW | 3.48 |
| LSKEYWDCLEWKKSKHAPRGTHLW | 1.82 |
| LSKEYWDCLEGDKSKHAPRGTHLW | 3.4 |
| LSKEYWDCLEGTKSKHAPRGTHLW | 2.43 |
| LSKEYWDCLEGVKSKHAPRGTHLW | 2.23 |
| LSKEYWDCLEGNKSKHAPRGTHLW | 3.68 |
| LSKEYWDCLEGGKSKHAPRGTHLW | 2.58 |
| LSKEYWDCLEGSKSKHAPRGTHLW | 3.38 |
| LSKEYWDCLEGQKSKHAPRGTHLW | 2.99 |
| LSKEYWDCLEGMKSKHAPRGTHLW | 2.53 |
| LSKEYWDCLEGEKSKHAPRGTHLW | 3.21 |
| LSKEYWDCLEGHKSKHAPRGTHLW | 2.52 |
| LSKEYWDCLEGFKSKHAPRGTHLW | 2.71 |
| LSKEYWDCLEGAKSKHAPRGTHLW | 2.54 |
| LSKEYWDCLEGIKSKHAPRGTHLW | 2.26 |
| LSKEYWDCLEGPKSKHAPRGTHLW | 2.96 |
| LSKEYWDCLEGRKSKHAPRGTHLW | 2.35 |
| LSKEYWDCLEGLKSKHAPRGTHLW | 2.06 |
| LSKEYWDCLEGWKSKHAPRGTHLW | 1.54 |
| LSKEYWDCLEGCKSKHAPRGTHLW | 1.97 |
| LSKEYWDCLEGYKSKHAPRGTHLW | 1.88 |
| LSKEYWKCLEGKKSKHAPRGTHLW | 2.41 |

| Variant | protein stability index |
| --- | --- |
| LSKEYWYCLEGKKSKHAPRGTHLW | 2.29 |
| LSKEYWPCLEGKKSKHAPRGTHLW | 2.04 |
| LSKEYWVCLEGKKSKHAPRGTHLW | 2.44 |
| LSKEYWGCLEGKKSKHAPRGTHLW | 2.15 |
| LSKEYWQCLEGKKSKHAPRGTHLW | 3 |
| LSKEYWTCLEGKKSKHAPRGTHLW | 2.76 |
| LSKEYWRCLEGKKSKHAPRGTHLW | 1.65 |
| LSKEYWFCLEGKKSKHAPRGTHLW | 1.83 |
| LSKEYWSCLEGKKSKHAPRGTHLW | 2.44 |
| LSKEYWHCLEGKKSKHAPRGTHLW | 2.33 |
| LSKEYWCCLEGKKSKHAPRGTHLW | 2.32 |
| LSKEYWICLEGKKSKHAPRGTHLW | 2.05 |
| LSKEYWMCLEGKKSKHAPRGTHLW | 2.6 |
| LSKEYWECLEGKKSKHAPRGTHLW | 2.77 |
| LSKEYWLCLEGKKSKHAPRGTHLW | 2.26 |
| LSKEYWNCLEGKKSKHAPRGTHLW | 2.96 |
| LSKEYWWCLEGKKSKHAPRGTHLW | 1.89 |
| LSKEYWDCLTGKKSKHAPRGTHLW | 2.1 |
| LSKEYWDCLQGKKSKHAPRGTHLW | 2.73 |
| LSKEYWDCLMGKKSKHAPRGTHLW | 2.18 |
| LSKEYWDCLFGKKSKHAPRGTHLW | 2.08 |
| LSKEYWDCLYGKKSKHAPRGTHLW | 1.63 |
| LSKEYWDCLLGKKSKHAPRGTHLW | 1.82 |
| LSKEYWDCLPGKKSKHAPRGTHLW | 2.16 |

| Variant | protein stability index |
| --- | --- |
| LSKEYWDCLIGKKSKHAPRGTHLW | 1.61 |
| LSKEYWDCLHGKKSKHAPRGTHLW | 2.15 |
| LSKEYWDCLVGKKSKHAPRGTHLW | 2.28 |
| LSKEYWDCLRGKKSKHAPRGTHLW | 1.86 |
| LSKEYWDCLNGKKSKHAPRGTHLW | 2.55 |
| LSKEYWDCLWGKKSKHAPRGTHLW | 2.08 |
| LSKEYWDCLGGKKSKHAPRGTHLW | 2.37 |
| LSKEYWDCLDGKKSKHAPRGTHLW | 3.23 |
| LSKEYWDCLAGKKSKHAPRGTHLW | 2.52 |
| LSKEYWDCLKGKKSKHAPRGTHLW | 2.18 |
| LSKEYWDCLSGKKSKHAPRGTHLW | 2.49 |
| LSKEYWDCLCGKKSKHAPRGTHLW | 2.07 |
| LSKEYWDRLEGKKSKHAPRGTHLW | 3.2 |
| LSKEYWDYLEGKKSKHAPRGTHLW | 2.74 |
| LSKEYWDFLEGKKSKHAPRGTHLW | 2.81 |
| LSKEYWDALEGKKSKHAPRGTHLW | 3.1 |
| LSKEYWDKLEGKKSKHAPRGTHLW | 3.73 |
| LSKEYWDGLEGKKSKHAPRGTHLW | 3.2 |
| LSKEYWDDLEGKKSKHAPRGTHLW | 3.97 |
| LSKEYWDTLEGKKSKHAPRGTHLW | 3.26 |
| LSKEYWDMLEGKKSKHAPRGTHLW | 3.48 |
| LSKEYWDELEGKKSKHAPRGTHLW | 2.85 |
| LSKEYWDPLEGKKSKHAPRGTHLW | 2.04 |
| LSKEYWDNLEGKKSKHAPRGTHLW | 3.07 |

| Variant | protein stability index |
| --- | --- |
| LSKEYWDQLEGKKSKHAPRGTHLW | 2.95 |
| LSKEYWDWLEGKKSKHAPRGTHLW | 2.17 |
| LSKEYWDHLEGKKSKHAPRGTHLW | 3.06 |
| LSKEYWDSLEGKKSKHAPRGTHLW | 3.33 |
| LSKEYWDILEGKKSKHAPRGTHLW | 2.66 |
| LSKEYWDLLEGKKSKHAPRGTHLW | 3.08 |
| LSKEYWDVLEGKKSKHAPRGTHLW | 3.89 |
| LSKEYWDCLEGKMSKHAPRGTHLW | 2.3 |
| LSKEYWDCLEGKWSKHAPRGTHLW | 2.92 |
| LSKEYWDCLEGKRSKHAPRGTHLW | 2.87 |
| LSKEYWDCLEGKHSKHAPRGTHLW | 2.87 |
| LSKEYWDCLEGKGSKHAPRGTHLW | 3.08 |
| LSKEYWDCLEGKNSKHAPRGTHLW | 2.36 |
| LSKEYWDCLEGKDSKHAPRGTHLW | 3.24 |
| LSKEYWDCLEGKLSKHAPRGTHLW | 2.64 |
| LSKEYWDCLEGKESKHAPRGTHLW | 3.52 |
| LSKEYWDCLEGKYSKHAPRGTHLW | 2.82 |
| LSKEYWDCLEGKTSKHAPRGTHLW | 2.37 |
| LSKEYWDCLEGKCSKHAPRGTHLW | 2.24 |
| LSKEYWDCLEGKFSKHAPRGTHLW | 2.74 |
| LSKEYWDCLEGKISKHAPRGTHLW | 2.22 |
| LSKEYWDCLEGKPSKHAPRGTHLW | 2.47 |
| LSKEYWDCLEGKQSKHAPRGTHLW | 3.17 |
| LSKEYWDCLEGKVSKHAPRGTHLW | 2.32 |

| Variant | protein stability index |
| --- | --- |
| LSKEYWDCLEGKASKHAPRGTHLW | 2.76 |
| LSKEYWDCLEGKKCKHAPRGTHLW | 2.1 |
| LSKEYWDCLEGKKYKHAPRGTHLW | 3.48 |
| LSKEYWDCLEGKKVKHAPRGTHLW | 2.94 |
| LSKEYWDCLEGKKAKHAPRGTHLW | 2.81 |
| LSKEYWDCLEGKKTKHAPRGTHLW | 3.13 |
| LSKEYWDCLEGKKNKHAPRGTHLW | 2.96 |
| LSKEYWDCLEGKKIKHAPRGTHLW | 2.68 |
| LSKEYWDCLEGKKQKHAPRGTHLW | 2.71 |
| LSKEYWDCLEGKKWKHAPRGTHLW | 3.31 |
| LSKEYWDCLEGKKRKHAPRGTHLW | 2.92 |
| LSKEYWDCLEGKKMKHAPRGTHLW | 2.24 |
| LSKEYWDCLEGKKKKHAPRGTHLW | 3.08 |
| LSKEYWDCLEGKKDKHAPRGTHLW | 4.18 |
| LSKEYWDCLEGKKFKHAPRGTHLW | 1.99 |
| LSKEYWDCLEGKKPKHAPRGTHLW | 2.94 |
| LSKEYWDCLEGKKLKHAPRGTHLW | 2.19 |
| LSKEYWDCLEGKKGKHAPRGTHLW | 2.77 |
| LSKEYWDCLEGKKHKHAPRGTHLW | 2.5 |
| LSKEYWDCLEGKKEKHAPRGTHLW | 3.16 |
